Assay results reported in US20040018580A1, “Synthetic substrates for prostasin” (priority 2002, published 2004).
Each block holds one molecule with its values, some of them ahead of it.

Legend:
prostasin [1] = target: T1, prostasin (Homo sapiens, UniProt Q16651); experiment: Complex formation of recombinant GST-PN-1 with recombinant prostasin (immunoblot); type: binding; set-up: made in house; details: for complex formation of GST-PN-1 fusion protein with prostasin: 0.5 micrograms recombinant prostasin, 37 degrees C., 60 minutes
Procedure: To establish if mPBP is indeed protease nexin-1, mouse and human protease nexin-1 (PN-1) cDNA were cloned into the pGEX-6P-1 expression vector. The recombinant protein products have the schistosomal glutathione-S-transferase (GST) fused to t he N-terminus of the PN-1. The GST fusion proteins were affinity-purified using glutathione-conjugated agarose-beads. For each type of recombinant protein, cleared supernatant of cell lysate from one liter of culture was incubated with 1 ml of […] glutathione-beads. The beads were eluted with 1 ml of fresh 10 mM glutathione in 50 mM Tris-Hcl, pH 8.0. Twenty microliters of the eluent were incubated with 0.5 micrograms of recombinant prostasin at 37 degrees C. for 60 minutes in the absence or presence of aprotinin. Both the GST-mPN-1 (FIG. 8, lane 1 alone at 64 kDa) and the GST-hPN-1 (FIG. 8, lanes 2 and 5). […] An immunoreactive band at 30 kDa and two other minor immunoreactive bands at 42 kDa and 60 kDa were likely the products of non-specific degradation of the recombinant PN-1, since no protease inhibitors were added in the cell lysate during purification.

prostasin-mPBP complex = target: T2, prostasin-mPBP complex (Homo sapiens, UniProt Q16651); experiment: Inhibition of complex formation between prostasin and mPBP (western blot); type: binding
T2 construct: made in house; mPBP: purified from mouse seminal vesicle fluid
Procedure: (§1) The procedures were performed according to Chen et al. Briefly, purified recombinant prostasin was incubated with samples from each purification step or the final purified mPBP at 37 degrees C. for 1 hour or for various times as indicated. The binding reaction was stopped by the addition of SDS sample buffer (1×SDS sample buffer=62.5 mM Tris-Hcl at Ph 6.8, 2% (v/v) glycerol, 2% SDS (w/v) and 2% Beta-mercaptoethanol). The reaction mixtures were then boiled for 5 min, and resolved in 10% SDS-polyacrylamide gels. The resolved proteins were then transferred to nitrocellulose membranes, and analyzed with either a prostasin antibody or the mPBP antibody. Signals were detected using an ECL detection procedure with the WestPico reagents (Pierce, Rockford, Ill.) following the manufacturer's protocol. The membrane was then exposed to X-ray film (Midwest Scientific, St. Louis, Mo.) The prostasin antibody was used at 1:2,000 dilution, the mPBP antibody was used at 1:10,000 dilution, and the secondary antibody (goat anti-rabbit IgG, Sigma-Aldrich) was used at 1:10,000 dilution. All antibodies were diluted in 5% non-fat milk in TBS-T (TBS-T=20 mM Tris-Hcl at pH 7.6, 0.14M NaCl and 0.1% Tween-20).
(§2) The purified mPBP was tested for its biochemical activities using the prostasin binding assay. Complex formation between mPBP and purified prostasin was analyzed by western blotting using the mPBP antibody and a prostasin antibody. […] The complex was detected after 30 seconds of incubation and progressed during the incubation time course (60 minutes). […] The complex formation of prostasin and mPBP was used as a control (FIG. 4C, lane 2).
(§3) It has been known that PN-1 can form complexes with various serine proteases, including thrombin. […] We also tested if the complex is pH dependent because prostasins's optimum pH is 9.0. […] We further tested if heparin may have a different effect on the complex formation between prostasin-mPBP versus on that between thrombin-mPBP.

prostasin [2] = target: T1, prostasin; experiment: Enzymatic assay with QAR-AMC substrate (residual activity of prostasin); type: biochemical; set-up: made in house
Procedure: Recombinant human prostasin was purified as described in Chen et al. A synthetic substrate, N-t-Boc-Gln-Ala-Arg-7-amido-4-methyl coumarin (QAR-AMC) was purchased from Sigma-Aldrich. The purified mPBP (concentration range 0-0.4 micromolar) was incubated with prostasin (0.8 micromolar) for 30 mins at 37 degrees C. The binding reaction mixture (20 microliters) was then added to 80 microliters of […] Tris-HCL) pH 8.0/0.1% bovine serum albumin containing the QAR-AMC substrate (final concentration: 100 micromolar) in 96-well microtiter plates (Costar 3903, Cambridge, Mass.). The velocity of substrate hydrolysis was measured using a Wallac 1420 Victor mulitlabel counter at wavelength 355 nm and wavelength 460 nm. The residual activity of prostasin (velocity of the inhibited enzyme reaction/velocity of the uninhibited enzyme reaction) as plotted versus the mPBP concentration.
QAR-AMC was used as a substrate for prostasin to test the inhibitory activity of the purified mPBP. Pprostasin (0.8 micromolar) was incubated with 0, 0.05, 0.1, 0.2 or 0.4 micromolar mPBP at 37 degress C. for 30 mins. The reaction mixture was then to the assay buffer containing a final concentration of 100 micromolar QAR-AMC substrate.

thrombin-mPBP complex = target: T3, thrombin-mPBP complex (Homo sapiens, UniProt P00734); experiment: Effect of heparin on complex formation between thrombin and mPBP; type: binding; details: heparin at 0.25 unit/reaction, FIG. 6B
T3 construct: mPBP: purified from mouse seminal vesicle fluid
Source text: as §3

factor Xa = details: cited from earlier work
thrombin [3] = target: T4, thrombin (Homo sapiens, UniProt P00734); details: cited from earlier work
[4] = target: T5, purified recombinant prostasin (Homo sapiens, UniProt Q16651); experiment: Prostasin-binding assay (complex formation, western blot)
T5 construct: made in house
Procedure: as §1, §2

thrombin [5] = target: T4, thrombin; experiment: Complex formation between thrombin and mPBP; type: binding
Source text: as §3

prostasin [6] = target: T1, prostasin; experiment: Membrane-overlay zymography of prostasin activity; type: biochemical
[7] = binding conditions of increasing pH

T1 sequence (Q16651 33-343): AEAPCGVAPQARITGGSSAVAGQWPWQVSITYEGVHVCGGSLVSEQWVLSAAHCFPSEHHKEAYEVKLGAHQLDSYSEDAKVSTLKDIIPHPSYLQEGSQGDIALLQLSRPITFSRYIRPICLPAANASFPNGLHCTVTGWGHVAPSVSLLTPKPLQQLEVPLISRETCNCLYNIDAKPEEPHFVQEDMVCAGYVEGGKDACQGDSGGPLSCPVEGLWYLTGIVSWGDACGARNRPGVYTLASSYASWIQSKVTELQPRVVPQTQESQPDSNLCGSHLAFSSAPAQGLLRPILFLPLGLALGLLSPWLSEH
T5 sequence (Q16651 33-343): as above

effect on GST-PN-1/prostasin complex formation (prostasin [1]; in the presence of aprotinin, FIG. 8 lanes 3 and 6): inhibited
effect on prostasin-mPBP complex formation (prostasin-mPBP complex; FIG. 4C): inhibited
Molecule: aprotinin [reference compound]

effect on thrombin-mPBP complex formation (thrombin-mPBP complex): not between thrombin-PMP
effect on prostasin-mPBP complex formation (prostasin-mPBP complex; FIG. 4C): inhibited
effect on prostasin-mPBP complex formation (prostasin-mPBP complex; heparin at 0.25 unit/reaction, FIG. 6B): completely abolished
Molecule: heparin
effect on prostasin inhibition by mPBP (prostasin [2]; pre-incubation of mPBP and heparin, QAR-AMC substrate): able to prevent prostasin inhibition by mPBP

inhibition of prostasin's activity (prostasin [2]; prostasin 0.8 micromolar with 0-0.4 micromolar mPBP, 37 degrees C., 30 mins, 100 micromolar QAR-AMC): inhibited in a dose dependent manner
pH dependence of complex formation of mPBP and prostasin [4, 7]: increased with higher pH
complex formation with prostasin ([4]; purified mPBP, western blot): formed a complex with prostasin
incubation time after which the prostasin-mPBP complex was detected ([4]; time course up to 60 minutes, 37 degrees C.): 30 s
pH dependence of complex formation of mPBP and thrombin (thrombin [5]; [7]): somewhat decreased with increasing pH
inhibition of prostasin's activity by membrane-overlay zymography (prostasin [6]): inhibits prostasin's activity
B4: mPBP: mouse prostasin-binding protein purified from mouse seminal vesicle fluid, 45 kDa; identified as the serpin protease nexin-1 (protein)
chain: SQFNSLSLEELGSNTGIQVFNQIIKSRPHENVVVSPHGIASILGMLQLGADGKTKKQLSTVMRYNVNGVGKVLKKINKAIVSKKNKDIVTVANAVFLRNGFKMEVPFAVRNKDVFQCEVQNVNFQDPASASESINFWVKNETRGMIDNLLSPNLIDGALTRLVLVNAVYFKGLWKSRFQPESTKKRTFVAGDGKSYQVPMLAQLSVFRSGSTRTPNGLWYNFIELPYHGESISMLIALPTESSTPLSAIIPHITTKTIDSWMNTMVPKRMQLVLPKFTAVAQTDLKEPLKALGITEMFEPSKANFTKITRSESLHVSHILQKAKIEVSEDGTKASAATTAILIARSSPPWFIVDRPFLFSIRHNPTGAILFLGQVNKP
complex formation with thrombin (thrombin [5]; purified mPBP): formed a complex with prostasin as well as thrombin

Second part, the molecule before the results:

Molecule: O=S(=O)(F)Cc1ccccc1 [PMSF]
effect on prostasin-mPBP complex formation (prostasin-mPBP complex; FIG. 4C): inhibited

B1: GST-hPN-1: recombinant human PN-1 with glutathione-S-transferase fused to the N-terminus (protein)
chain: SHFNPLSLEELGSNTGIQVFNQIVKSRPHDNIVISPHGIASVLGMLQLGADGRTKKQLAMVMRYGVNGVGKILKKINKAIVSKKNKDIVTVANAVFVKNASEIEVPFVTRNKDVFQCEVRNVNFEDPASACDSINAWVKNETRDMIDNLLSPDLIDGVLTRLVLVNAVYFKGLWKSRFQPENTKKRTFVAADGKSYQVPMLAQLSVFRCGSTSAPNDLWYNFIELPYHGESISMLIALPTESSTPLSAIIPHISTKTIDSWMSIMVPKRVQVILPKFTAVAQTDLKEPLKVLGITDMFDSSKANFAKITTGSENLHVSHILQKAKIEVSEDGTKASAATTAILIARSSPPWFIVDRPFLFFIRHNPTGAVLFMGQINKP
modifications: left off: a dimerising Fc or GST
notes: recombinant human PN-1 with glutathione-S-transferase fused to the N-terminus
complex formation of GST-PN-1 fusion protein with prostasin (prostasin [1]): form a 100 kDa complex

B2: GST-mPN-1: recombinant mouse PN-1 with glutathione-S-transferase fused to the N-terminus (protein)
chain: SQFNSLSLEELGSNTGIQVFNQIIKSRPHENVVVSPHGIASILGMLQLGADGKTKKQLSTVMRYNVNGVGKVLKKINKAIVSKKNKDIVTVANAVFLRNGFKMEVPFAVRNKDVFQCEVQNVNFQDPASASESINFWVKNETRGMIDNLLSPNLIDGALTRLVLVNAVYFKGLWKSRFQPESTKKRTFVAGDGKSYQVPMLAQLSVFRSGSTRTPNGLWYNFIELPYHGESISMLIALPTESSTPLSAIIPHITTKTIDSWMNTMVPKRMQLVLPKFTAVAQTDLKEPLKALGITEMFEPSKANFTKITRSESLHVSHILQKAKIEVSEDGTKASAATTAILIARSSPPWFIVDRPFLFSIRHNPTGAILFLGQVNKP
modifications: left off: a dimerising Fc or GST
notes: recombinant mouse PN-1 with glutathione-S-transferase fused to the N-terminus
complex formation of GST-PN-1 fusion protein with prostasin (prostasin [1]): form a 100 kDa complex

B3: PN-1: protease nexin-1, a serine protease inhibitor (serpin) (protein)
chain: SQFNSLSLEELGSNTGIQVFNQIIKSRPHENVVVSPHGIASILGMLQLGADGKTKKQLSTVMRYNVNGVGKVLKKINKAIVSKKNKDIVTVANAVFLRNGFKMEVPFAVRNKDVFQCEVQNVNFQDPASASESINFWVKNETRGMIDNLLSPNLIDGALTRLVLVNAVYFKGLWKSRFQPESTKKRTFVAGDGKSYQVPMLAQLSVFRSGSTRTPNGLWYNFIELPYHGESISMLIALPTESSTPLSAIIPHITTKTIDSWMNTMVPKRMQLVLPKFTAVAQTDLKEPLKALGITEMFEPSKANFTKITRSESLHVSHILQKAKIEVSEDGTKASAATTAILIARSSPPWFIVDRPFLFSIRHNPTGAILFLGQVNKP
inhibitory activity of PN-1 to factor Xa in the presence of heparin (factor Xa): enhanced
inhibitory activity of PN-1 to thrombin in the presence of heparin (thrombin [3]): enhanced
